Results reported in patent publication US9708383 (Novo Nordisk, dated 2017).
*1 amine or outer side, *2 acyl side, *3 side chain or, on linkers, in order; H or OH if unused. Where no end group is shown, it is not given here. Side-chain parts run from the residue outwards. [ ]: non-standard residue; d: D form. The star is where a group is joined. Decanoyl(10-(4-HOOC-PhO)) = O=C(O)c1ccc(OCCCCCCCCCC(=O)*)cc1; γGlu = O=C(O)[C@H](CCC(=O)[*:2])N[*:1]; Hexanoyl(6-Ph) = O=C(CCCCCc1ccccc1)*; 13‑carboxytridecanoyl = C14 diacid; AEEA = NCCOCCOCC(=O)O; Aib = CC(C)(N)C(=O)O; Ahx = NCCCCCC(=O)O

What follows are binders tested against T1, human GLP-1 receptor (human, UniProt P43220 24-463) (assay: SPA, 2.0% vs 0.005% HSA).
T1 construct: whole, on cells; Used as purified membranes of the transfected hamster cells, not whole cells; also called hGLP-1
Protocol: (§1) A shift in the binding affinity, $IC50$, is an indication that the derivative in question binds to albumin, and thereby a prediction of a potential protracted pharmacokinetic profile of the derivative in question in animal models.
(§2) 25 ul (microliter) of test compounds are added to Optiplate. HSA ("high albumin" experiment containing 2% HSA), or buffer ("low albumin" experiment containing 0.005% HSA), was added (50 ul). 5-10 µg protein/sample was added (50 ul) corresponding to 0.1-0.2 mg protein/ml (to be preferably optimised for each membrane preparation). SPA-particles (Wheatgerm agglutinin SPA beads, Perkin Elmer, #RPNQ0001) were added in an amount of 0.5 mg/well (50 ul). […] The plates were sealed with PlateSealer and incubated for 120 minutes at 30° C. while shaking. The plates were centrifuged (1500 rpm, 10 min) and counted in Topcounter.
For HAEGTFTSDVSK([AEEA-AEEA-γGlu-Ahx-γGlu-Hexanoyl(6-Ph)])YLEGQAAK([AEEA-AEEA-γGlu-Ahx-γGlu-Hexanoyl(6-Ph)])EFIAWLVRGRG [GLP-1 derivative of Example 129: [Lys18,Arg34]-GLP-1-(7-37)-peptide], the “ratio IC50 high HSA/IC50 low HSA” value was greater than 1. HAEGTFTSDVSK([AEEA-AEEA-γGlu-13‑carboxytridecanoyl])YLEEQAVREFIAK([AEEA-AEEA-γGlu-13‑carboxytridecanoyl])LVRGRG-NH2 [GLP-1 derivative of Example 133: [Lys18,Glu22,Val25,Arg26,Lys31,Arg34]-GLP-1-(7-37)-peptide amide] was tested, and the “ratio IC50 high HSA/IC50 low HSA” value was greater than 1. With H[Aib]EGTFTSDVSK([AEEA-AEEA-γGlu-Decanoyl(10-(4-HOOC-PhO))])YLEEQAAK([AEEA-AEEA-γGlu-Decanoyl(10-(4-HOOC-PhO))])EFIAWLVQGRG [GLP-1 derivative of Example 2: [Aib8,Lys18,Glu22,Gln34]-GLP-1-(7-37)-peptide] the “ratio IC50 high HSA/IC50 low HSA” value was greater than 1. H[Aib]EGTFTSDVSK([AEEA-AEEA-γGlu-Decanoyl(10-(4-HOOC-PhO))])YLEEQAAREFIAK([AEEA-AEEA-γGlu-Decanoyl(10-(4-HOOC-PhO))])LVRGRG [GLP-1 derivative of Example 3: [Aib8,Lys18,Glu22,Arg26,Lys31,Arg34]-GLP-1-(7-37)-peptide] was tested, and the “ratio IC50 high HSA/IC50 low HSA” value was greater than 1. For H[Aib]EGTFTSDVSKYLEGQAAVKFIAWLVRGRG (not fully specified (residues 12, 21), also called Chem. 87) [GLP-1 derivative of Example 68: [Aib8,Lys18,Val26,Lys27,Arg34]-GLP-1-(7-37)-peptide], the “ratio IC50 high HSA/IC50 low HSA” value was greater than 1. With H[Aib]EGTFTSDVSK([AEEA-AEEA-γGlu-Decanoyl(10-(4-HOOC-PhO))])YLEEQAAREFIAWLVRGRK([AEEA-AEEA-γGlu-Decanoyl(10-(4-HOOC-PhO))]) [GLP-1 derivative of Example 1: [Aib8,Lys18,Glu22,Arg26,Arg34,Lys37]-GLP-1-(7-37)-peptide] the “ratio IC50 high HSA/IC50 low HSA” value was greater than 1. For H[Aib]EGTFTSDVSK([AEEA-AEEA-γGlu-Decanoyl(10-(4-HOOC-PhO))])YLEEQAVREFIAK([AEEA-AEEA-γGlu-Decanoyl(10-(4-HOOC-PhO))])LVRGRG [GLP-1 derivative of Example 76: [Aib8,Lys18,Glu22,Val25,Arg26,Lys31,Arg34]-GLP-1-(7-37)-peptide], the “ratio IC50 high HSA/IC50 low HSA” value was greater than 1. For H[Aib]EGTFTSDVSK([AEEA-AEEA-γGlu-Decanoyl(10-(4-HOOC-PhO))])YLEEQAAK([AEEA-AEEA-γGlu-Decanoyl(10-(4-HOOC-PhO))])EFIAWLVRGRG [GLP-1 derivative of Example 88: [Aib8,Lys18,Glu22,Arg34]-GLP-1-(7-37)-peptide], the “ratio IC50 high HSA/IC50 low HSA” value was greater than 1. With H[Aib]EGTFTSDVSK([AEEA-AEEA-γGlu-13‑carboxytridecanoyl])YLEEQAVREFIAK([AEEA-AEEA-γGlu-13‑carboxytridecanoyl])LVRGRG [GLP-1 derivative of Example 74: [Aib8,Lys18,Glu22,Val25,Arg26,Lys31,Arg34]-GLP-1-(7-37)-peptide] the “ratio IC50 high HSA/IC50 low HSA” value was greater than 1. For H[Aib]EGTFTSDVSK([AEEA-AEEA-γGlu-13‑carboxytridecanoyl])YLEEQAAREFIK([AEEA-AEEA-γGlu-13‑carboxytridecanoyl])WLVRGRG [GLP-1 derivative of Example 51: [Aib8,Lys18,Glu22,Arg26,Lys30,Arg34]-GLP-1-(7-37)-peptide], the “ratio IC50 high HSA/IC50 low HSA” value was greater than 1. H[Aib]EGTFTSDVSK([AEEA-AEEA-γGlu-13‑carboxytridecanoyl])YLEEQAAREFIAK([AEEA-AEEA-γGlu-13‑carboxytridecanoyl])LVRGRG [GLP-1 derivative of Example 73: [Aib8,Lys18,Glu22,Arg26,Lys31,Arg34]-GLP-1-(7-37)-peptide] was tested, and the “ratio IC50 high HSA/IC50 low HSA” value was greater than 1. H[Aib]EGTFTSDVSK([AEEA-AEEA-γGlu-Decanoyl(10-(4-HOOC-PhO))])YLEEQAVRK([AEEA-AEEA-γGlu-Decanoyl(10-(4-HOOC-PhO))])FIAWLVQGRG [GLP-1 derivative of Example 41: [Aib8,Lys18,Glu22,Val25,Arg26,Lys27,Gln34]-GLP-1-(7-37)-peptide] was tested, and the “ratio IC50 high HSA/IC50 low HSA” value was greater than 1.

These binders were tested against T1, human GLP-1 receptor (assay: SPA, displacement of 125I-GLP-1(7-36)NH2, 0.005% HSA).
Protocol: as §1, §2
In the case of HAEGTFTSDVSK([AEEA-AEEA-γGlu-Ahx-γGlu-Hexanoyl(6-Ph)])YLEGQAAK([AEEA-AEEA-γGlu-Ahx-γGlu-Hexanoyl(6-Ph)])EFIAWLVRGRG [GLP-1 derivative of Example 129: [Lys18,Arg34]-GLP-1-(7-37)-peptide], the IC50 is reported as less than 1000 nM. With HAEGTFTSDVSK([AEEA-AEEA-γGlu-13‑carboxytridecanoyl])YLEEQAVREFIAK([AEEA-AEEA-γGlu-13‑carboxytridecanoyl])LVRGRG-NH2 [GLP-1 derivative of Example 133: [Lys18,Glu22,Val25,Arg26,Lys31,Arg34]-GLP-1-(7-37)-peptide amide] the IC50 was less than 1000 nM. With H[Aib]EGTFTSDVSK([AEEA-AEEA-γGlu-Decanoyl(10-(4-HOOC-PhO))])YLEEQAAK([AEEA-AEEA-γGlu-Decanoyl(10-(4-HOOC-PhO))])EFIAWLVQGRG [GLP-1 derivative of Example 2: [Aib8,Lys18,Glu22,Gln34]-GLP-1-(7-37)-peptide] the IC50 was less than 1000 nM. Work on H[Aib]EGTFTSDVSK([AEEA-AEEA-γGlu-Decanoyl(10-(4-HOOC-PhO))])YLEEQAAREFIAK([AEEA-AEEA-γGlu-Decanoyl(10-(4-HOOC-PhO))])LVRGRG [GLP-1 derivative of Example 3: [Aib8,Lys18,Glu22,Arg26,Lys31,Arg34]-GLP-1-(7-37)-peptide] yielded an IC50 of less than 1000 nM. For H[Aib]EGTFTSDVSKYLEGQAAVKFIAWLVRGRG (not fully specified (residues 12, 21), also called Chem. 87) [GLP-1 derivative of Example 68: [Aib8,Lys18,Val26,Lys27,Arg34]-GLP-1-(7-37)-peptide], the IC50 was less than 1000 nM. For H[Aib]EGTFTSDVSK([AEEA-AEEA-γGlu-Decanoyl(10-(4-HOOC-PhO))])YLEEQAAREFIAWLVRGRK([AEEA-AEEA-γGlu-Decanoyl(10-(4-HOOC-PhO))]) [GLP-1 derivative of Example 1: [Aib8,Lys18,Glu22,Arg26,Arg34,Lys37]-GLP-1-(7-37)-peptide], the IC50 was less than 1000 nM. H[Aib]EGTFTSDVSK([AEEA-AEEA-γGlu-Decanoyl(10-(4-HOOC-PhO))])YLEEQAVREFIAK([AEEA-AEEA-γGlu-Decanoyl(10-(4-HOOC-PhO))])LVRGRG [GLP-1 derivative of Example 76: [Aib8,Lys18,Glu22,Val25,Arg26,Lys31,Arg34]-GLP-1-(7-37)-peptide] was tested, and the IC50 was less than 1000 nM. With H[Aib]EGTFTSDVSK([AEEA-AEEA-γGlu-Decanoyl(10-(4-HOOC-PhO))])YLEEQAAK([AEEA-AEEA-γGlu-Decanoyl(10-(4-HOOC-PhO))])EFIAWLVRGRG [GLP-1 derivative of Example 88: [Aib8,Lys18,Glu22,Arg34]-GLP-1-(7-37)-peptide] the IC50 was less than 1000 nM. H[Aib]EGTFTSDVSK([AEEA-AEEA-γGlu-13‑carboxytridecanoyl])YLEEQAVREFIAK([AEEA-AEEA-γGlu-13‑carboxytridecanoyl])LVRGRG [GLP-1 derivative of Example 74: [Aib8,Lys18,Glu22,Val25,Arg26,Lys31,Arg34]-GLP-1-(7-37)-peptide] showed an IC50 of less than 1000 nM. With H[Aib]EGTFTSDVSK([AEEA-AEEA-γGlu-13‑carboxytridecanoyl])YLEEQAAREFIK([AEEA-AEEA-γGlu-13‑carboxytridecanoyl])WLVRGRG [GLP-1 derivative of Example 51: [Aib8,Lys18,Glu22,Arg26,Lys30,Arg34]-GLP-1-(7-37)-peptide] the IC50 was less than 1000 nM. H[Aib]EGTFTSDVSK([AEEA-AEEA-γGlu-13‑carboxytridecanoyl])YLEEQAAREFIAK([AEEA-AEEA-γGlu-13‑carboxytridecanoyl])LVRGRG [GLP-1 derivative of Example 73: [Aib8,Lys18,Glu22,Arg26,Lys31,Arg34]-GLP-1-(7-37)-peptide] was tested, and the IC50 was less than 1000 nM. Binder H[Aib]EGTFTSDVSK([AEEA-AEEA-γGlu-Decanoyl(10-(4-HOOC-PhO))])YLEEQAVRK([AEEA-AEEA-γGlu-Decanoyl(10-(4-HOOC-PhO))])FIAWLVQGRG [GLP-1 derivative of Example 41: [Aib8,Lys18,Glu22,Val25,Arg26,Lys27,Gln34]-GLP-1-(7-37)-peptide] has an IC50 of less than 1000 nM.
